Source: publication doi:10.1101/219642 (bioRxiv, 2017)

Key:
[1] = molecular target: ubiquitin on ubiquitin-coated agarose beads (UniProt P0CG47 1-76, coupled to agarose beads); experiment: pull-down
[2] = molecular target: Purified bovine ubiquitin (bovine, UniProt P0CG53 1-76); experiment: SPR

Binder	binding result [1]	Kd [2] [µM]
GST fusion protein of the constitutively open mutant of the cytoplasmic region of Stx3 (L165A/E166A) (domain or fragment) MKDRLEQLKAKQLTQDDDTDEVEIAIDNTAFMDEFFSEIEETRLNIDKISEHVEEAKKLYSIILSAPIPEPKTKDDLEQLTTEIKKRANNVRNKLKSMEKHIEEDEVRSSADLRIRKSQHSVLSRKFVEVMTKYNEAQVDFRERSKGRIQRQLEITGKKTTDEEAAEMLESGNPAIFTSGIIDSQISKQALSEIEGRHKDIVRLESSIKELHDMFMDIAMLVENQGEMLDNIELNVMHTVDHVEKARDETKRAMKYQGQARKKLI	binds	–
GST fusion protein containing only the Habc domain (1-146) of Stx3 (domain or fragment) MKDRLEQLKAKQLTQDDDTDEVEIAIDNTAFMDEFFSEIEETRLNIDKISEHVEEAKKLYSIILSAPIPEPKTKDDLEQLTTEIKKRANNVRNKLKSMEKHIEEDEVRSSADLRIRKSQHSVLSRKFVEVMTKYNEAQVDFRERSK	binds	1360
